In US20060105320A1:

Assays:
[1] = biological target: NM (N-terminal and middle region of Sup35p), soluble / unpolymerized (Saccharomyces cerevisiae) (UniProt P05453); assay: cell-based or functional assay
[2] = biological target: biotinylated NM^K184C seed (Saccharomyces cerevisiae) (UniProt P05453); assay: capture of biotinylated seed on Streptavidin-coated Dynabeads, SDS wash, scintillation counting
Sequence of biotinylated NM^K184C seed (Saccharomyces cerevisiae) (P05453 1-253 K184C): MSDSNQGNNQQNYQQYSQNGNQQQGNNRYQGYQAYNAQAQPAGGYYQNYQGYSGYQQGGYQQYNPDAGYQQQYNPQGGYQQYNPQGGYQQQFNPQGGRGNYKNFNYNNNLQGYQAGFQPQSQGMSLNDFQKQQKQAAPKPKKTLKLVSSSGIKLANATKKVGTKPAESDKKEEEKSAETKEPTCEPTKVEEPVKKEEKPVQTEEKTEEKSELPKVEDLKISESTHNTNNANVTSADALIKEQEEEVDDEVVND

Sequence of NM (N-terminal and middle region of Sup35p), soluble / unpolymerized (Saccharomyces cerevisiae) (P05453 1-253): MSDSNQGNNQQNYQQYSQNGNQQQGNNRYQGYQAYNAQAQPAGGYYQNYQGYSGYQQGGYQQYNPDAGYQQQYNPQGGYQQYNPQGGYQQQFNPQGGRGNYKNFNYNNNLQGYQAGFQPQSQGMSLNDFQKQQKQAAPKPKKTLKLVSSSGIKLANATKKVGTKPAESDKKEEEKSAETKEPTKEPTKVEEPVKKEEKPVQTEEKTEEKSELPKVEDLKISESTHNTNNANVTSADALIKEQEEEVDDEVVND

In the case of “Hsp104 (from UniProt P31539 1-908) (enzyme)”, the IC50 of inhibition of NM fibrillization, no nucleotide [1] is reported as 7.6 µM, the IC50 of inhibition of NM fibrillization, with ADP [1] is reported as 3.1 µM and the IC50 of inhibition of NM fibrillization, with AMP-PNP [1] is reported as 0.2 µM. It also gave an IC50 of inhibition of NM fibrillization, with ATP hydrolysis [1] of 0.1 µM.
In the case of “NM^T158C-iodo[1-^14C]acetamide (soluble) (from UniProt P05453 1-253)”, the fraction of seed-bound NM soluble in SDS [2] is reported as 50%.
